Common to all, as to details: remark: other sources report otherwise
Assay [1] addresses T1, Native pentameric human C-reactive protein (Scripps) (human), P02741.
T1 chain: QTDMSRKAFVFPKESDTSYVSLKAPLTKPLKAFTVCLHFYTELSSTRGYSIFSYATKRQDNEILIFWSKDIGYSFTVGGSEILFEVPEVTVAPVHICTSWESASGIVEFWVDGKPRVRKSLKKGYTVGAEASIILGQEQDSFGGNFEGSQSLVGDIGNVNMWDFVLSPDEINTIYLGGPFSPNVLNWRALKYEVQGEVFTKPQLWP
The assay can be described thus: SEC; HiLoad 16/60 Superdex 200 pg, elution buffer B (50 mM tris, 150 mM NaCl, pH 7.2), 0.5 ml/min; pCRP after storage in 20 mM tris, 280 mM NaCl, 1 mM EDTA with 2, 2.5, 3 or 4 M urea at 4°C, 10 weeks.

In assay [2] the target is T2, Commercially sourced native C-reactive protein (Binding Site) (human), P02741.
T2 chain: T1 chain
In words: SEC; size exclusion FPLC (recalibrated after a change of column), 0.5 ml/min; 500 μg and 100 μg of PCho affinity purified CRP loaded; fractions at the mCRP position tested by ELISA. On the technique in general: Size exclusion chromatography separates by hydrodynamic size, large species first.

Assay [3] concerns the target T3, C-reactive protein purified from human serum of patients with raised CRP levels (>100 mg/L) (human (endogenous in patient serum)), P02741.
T3 chain: T1 chain
In words: SEC; HiLoad 16/60 Superdex 200 pg, elution with buffer A (5 mM CaCl2), 0.5 ml/min; serum CRP first purified by PCho affinity chromatography and eluted with EDTA.

B1: Native pentameric human C-reactive protein (Scripps), P02741 19-224 (natural protein)
chain: T1 chain
As for B1, the stoichiometry N (in general, the number of molecules, sites or subunits per partner or assembly) in assay [1] is 5.

B2: Commercially sourced native C-reactive protein (Binding Site), P02741 19-224 (natural protein)
chain: T1 chain
Take B2: the stoichiometry N in assay [2] worked out at 5.

B3: C-reactive protein purified from human serum of patients with raised CRP levels (>100 mg/L), P02741 19-224 (natural protein)
chain: T1 chain
On to B3, for which the stoichiometry N in assay [3] worked out at 5.

The record behind these values is publication PMC7010908.
